Assay results published in US7964700B2, “Inhibitors of Taspase1 protease activity” (Dana-Farber Cancer Institute, Inc., priority 2003, dated 2011).
Values belong to the substance of their own block, whether it stands above or below them. No end group written: not given here.

Target: T1, rTaspase1 (Homo sapiens, UniProt Q9H6P5)
T1 construct: Full-length Taspase1 was cloned from 293T cell cDNA and inserted into the Myc/Flag doubly-tagged expression vector; made in house; host or cells: E. coli BL21(DE3)
T1 sequence (Q9H6P5 1-233): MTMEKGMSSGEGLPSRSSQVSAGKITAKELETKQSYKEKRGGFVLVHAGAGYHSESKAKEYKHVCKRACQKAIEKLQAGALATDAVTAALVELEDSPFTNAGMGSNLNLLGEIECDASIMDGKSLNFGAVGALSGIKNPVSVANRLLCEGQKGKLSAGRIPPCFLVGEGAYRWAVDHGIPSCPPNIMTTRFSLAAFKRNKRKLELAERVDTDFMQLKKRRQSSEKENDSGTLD
T1 sequence (Q9H6P5 234-420): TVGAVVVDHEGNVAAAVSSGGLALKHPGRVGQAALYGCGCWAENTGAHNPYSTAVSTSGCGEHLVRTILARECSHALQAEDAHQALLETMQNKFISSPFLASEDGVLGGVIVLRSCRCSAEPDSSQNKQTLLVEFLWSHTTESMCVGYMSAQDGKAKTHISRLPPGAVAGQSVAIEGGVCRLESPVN
Experiment: In vitro cleavage assay: labeled MLL substrate incubated with rTaspase1 and peptide inhibitor, SDS-PAGE and autoradiography
Format: biochemical
Conditions: for inhibitory effect on the rTaspase1 enzyme (MLL substrate cleavage) / dose response: effectiveness of polypeptide-aldehyde Taspase1 inhibitors: 5 ng rTaspase1, 20 minutes; for inhibitory effect on the rTaspase1 enzyme (MLL substrate cleavage): then labeled substrate 60 minutes at 37° C.; for dose response: effectiveness of polypeptide-aldehyde Taspase1 inhibitors: concentrations of FIGS. 11A-11C
Description: Polypeptides of varying length (i.e., 4 to 7 amino acids in length) were prepared to identify preferred lengths and sequences of polypeptide inhibitors of Taspase1. The polypeptide inhibitors were based on the amino acid sequence that includes a upstream portion of the CS2 cleavage site of MLL as well as a portion of the CS2 cleavage site (See FIG. 1B and FIG. 9). The peptide inhibitors were purchased from Tufts University Peptide Core Facility and AnaSpec Inc. of San Jose, Calif. 1 mM of each of the inhibitors was incubated with 5 ng of rTaspase1 for 20 minutes before adding labeled substrate for another 60 minutes at 37° C. The results were analyzed by SDS-PAGE followed by autoradiography.
In order to determine a preferred length of polypeptide inhibitors of Taspase1, dose responses were tested for a six amino acid polypeptide inhibitor (KISQLA) (SEQ ID NO:8) and a five amino acid polypeptide inhibitor (ISQLA) (SEQ ID NO:7). The polypeptides were incubated at the concentrations depicted in FIG. 10 with 5 ng of rTaspase1 for 20 minutes before adding labeled MLL substrate for another 60 minutes at 37° C. The results were analyzed by SDS-PAGE followed by autoradiography.
Three modified polypeptide inhibitors were prepared wherein the carboxy terminals of the polypeptides were replaced with an aldehyde (SQLA-aldehyde (SEQ ID NO:17), SQLD-aldehyde (SEQ ID NO:9), and KISQLD-aldehyde (SEQ ID NO:11)). Chemical syntheses of these modified polypeptides is well known to one of skill in the art, and the modified polypeptides are also are available commercially at AnaSpec Inc. of San Jose, Calif. The polypeptides were incubated in the concentrations depicted in FIGS. 11A-11C with 5 ng of rTaspase1 for 20 minutes before adding labeled MLL substrate for another 60 minutes at 37° C. The results were analyzed by SDS-PAGE followed by autoradiography. […] Accordingly, the modified polypeptides can keep the active site of the enzyme occupied for a greater length of time, blocking entrance of the MLL substrate from entering the active site as required for cleavage. […] (See FIG. 11C.).
^35S-methionine labeled MLL substrate was incubated with 2 μl of indicated subcellular fractions or specified amounts of rTaspase1 in cleavage buffer (100 mM HEPES [pH 7.9], 5 mM MgCl2, 20 mM KCl, 5 mM DTT, and 10% sucrose) for 1 hour at 37° C. or indicated periods of time. Protease inhibitors utilized include 8.5 μM Phosphoramidon, 100 μM TLCK, 100 μM TPCK, 5 mM Iodoacetamide, 5 mM N-Ethylmaleimide, 0.3 μM Aprotinin, 100 μM Leupeptin, 1 μM Pepstatin, 1× Complete protease inhibitor cocktail (Roche), 100 μM Antipain, 100 μM APMSF, 10 μM Bestatin, 25 μM ALLN, 100 μM Chymostatin, […] E-64, 5 mM EDTA, 1 mM PMSF, 1 mM EGTA, 50 μM BAF (Boc-Aspartyl-FMK), and 50 μM z-VAD (z-VAD-FMK).

[1] = then labeled MLL substrate 60 minutes at 37° C.

Substance: Ser-Gln-Leu-Asp-aldehyde (SQLD-aldehyde)
dose response: effectiveness of polypeptide-aldehyde Taspase1 inhibitors [1]: more effective inhibitor than the SQLA-aldehyde

Substance: Lys-Ile-Ser-Gln-Leu-Asp-aldehyde (KISQLD-aldehyde)
dose response: effectiveness of polypeptide-aldehyde Taspase1 inhibitors [1]: more effective than both of the four amino acid aldehyde

Substance: KISQLD: six amino acid polypeptide based on the sequence upstream of the CS2 cleavage site of MLL (listed as Homo sapiens)
inhibitory effect on the rTaspase1 enzyme (MLL substrate cleavage) (1 mM inhibitor, FIG. 9): little inhibitory effect

Substance: SQLD: four amino acid polypeptide based on the sequence upstream of the CS2 cleavage site of MLL (listed as Homo sapiens)
inhibitory effect on the rTaspase1 enzyme (MLL substrate cleavage) (1 mM inhibitor, FIG. 9): little inhibitory effect

Substance: KISQA: polypeptide with P1 alanine and omission of the leucine residue at P2 (listed as Homo sapiens)
inhibitory effect on the rTaspase1 enzyme (MLL substrate cleavage) (1 mM inhibitor, FIG. 9): inhibitory effect was observed | inhibition of rTaspase1 relative to ISQLA (P2 leucine omitted) (1 mM inhibitor, 5 ng rTaspase1, FIG. 9): significantly decreased inhibition

Substance: Ile-Ser-Gln-Leu-Ala (ISQLA; listed as Homo sapiens)
dose response: effectiveness as Taspase1 inhibitor, five versus six amino acid polypeptide (concentrations of FIG. 10, 5 ng rTaspase1, 20 minutes, then labeled MLL substrate 60 minutes at 37° C.): more effective inhibitor at lower concentrations than the corresponding six amino acid polypeptide

The remaining lines, values ahead:

inhibitory effect on the rTaspase1 enzyme (MLL substrate cleavage) (1 mM inhibitor, FIG. 9): inhibitory effect was observed
Substance: KISdQLA: polypeptide where the P1 aspartate residue was substituted for an alanine residue (KISDQLA; not fully specified (residue 4); printed as KISdQLA; listed as Homo sapiens)

inhibitory effect on the rTaspase1 enzyme (MLL substrate cleavage) (1 mM inhibitor, FIG. 9): inhibitory effect was observed
Substance: KISQLA

inhibitory effect on the rTaspase1 enzyme (MLL substrate cleavage) (1 mM inhibitor, FIG. 9): little inhibitory effect
Substance: Ile-Ser-Gln-Leu-Asp (ISQLD; listed as Homo sapiens)
